Data from paper doi:10.1101/2020.11.23.394106 (bioRxiv, 2020).
Where no end group is shown, it is not given here.

T1: merlin FERM domain (22-312), GST tag cleaved (human, UniProt P35240 22-312)
T1 sequence: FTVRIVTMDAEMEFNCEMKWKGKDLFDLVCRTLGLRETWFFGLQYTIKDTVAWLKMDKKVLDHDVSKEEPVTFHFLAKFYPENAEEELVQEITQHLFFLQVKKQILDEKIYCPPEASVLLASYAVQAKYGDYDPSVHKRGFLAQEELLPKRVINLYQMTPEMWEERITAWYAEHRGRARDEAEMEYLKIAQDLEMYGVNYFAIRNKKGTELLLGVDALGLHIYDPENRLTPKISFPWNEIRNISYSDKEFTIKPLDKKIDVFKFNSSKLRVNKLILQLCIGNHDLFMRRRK


Tests used:
[1] = target: moesin FERM domain, GST tag cleaved (UniProt P26038 2-295); experiment: fluorescence polarisation
[2] = target: T1, merlin FERM domain (22-312), GST tag …; experiment: fluorescence polarisation

moesin FERM domain, GST tag cleaved, sequence (P26038 2-295): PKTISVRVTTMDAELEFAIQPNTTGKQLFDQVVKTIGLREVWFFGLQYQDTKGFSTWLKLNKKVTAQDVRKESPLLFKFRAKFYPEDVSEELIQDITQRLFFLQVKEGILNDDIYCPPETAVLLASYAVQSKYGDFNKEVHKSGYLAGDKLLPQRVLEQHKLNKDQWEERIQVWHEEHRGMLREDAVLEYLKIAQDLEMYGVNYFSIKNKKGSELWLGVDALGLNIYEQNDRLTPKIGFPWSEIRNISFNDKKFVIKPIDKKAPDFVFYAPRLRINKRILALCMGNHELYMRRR

Kd [1] [nM] | binding result [2] | Binder | further results
120 | – | TNGYYSVNTFKEHHSTPTI [KIRREL3 peptide with N-terminal extension of three amino acids (634-652), unlabeled] | –
– | binds | FYDLWASDNPLDRPLV (also: FITC label, site not given here) [FITC-labeled NOP53_(192-207)] | –
90 | – | YYSVNTFKEHHSTPTI [KIRREL3_(637-652), unlabeled peptide] | –
– | binds | LEFADFYDFRSSYPDH (also: FITC label, site not given here) [FITC-labeled ZNF622_(341-356)] | –
– | – | AEPLPSLEYWPQKSDR (also: FITC label (position not given here)) [FITC-labeled FAM83G_(111-126)] | Kd [2]: 93000 nM
